From patent US20170183639A1

Biological target: purified human recombinant Src (human) (UniProt P12931)
Test: in vitro competition; Src pre-incubated with peptide, GST-CD2 pull-down as competitor

Substance: pNaSH2 (TAT-tagged CD2-derived peptide phosphorylated at Y260)
- IC50: 500 nM
